Data as given in the nanobody polyreactivity screen of Harvey et al. (2022).

Experiment: yeast display, Sf9 membrane polyspecificity reagent, FACS + sequencing; frameworks hold sequencing errors
How it was run: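 Nanobodies from a synthetic yeast display library (Saccharomyces cerevisiae BJ5465), induced 36–48 hours with galactose, were stained 1 hour at 4 °C with 10% biotinylated, detergent-solubilized Sf9 membrane reagent, enriched on streptavidin microbeads, then FACS-sorted. Anti-HA (expression) and streptavidin (reagent binding) fluorescence set low and high (top ~1%) gates. Polyreactivity labels come from the gate of origin. Genes were colony-PCR amplified, MiSeq 2 × 250 sequenced and filtered by CDR length.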

Sequence	polyreactivity (PSR sort gate)
QVQLVESGGGLDQAGGSLRLSCAASGSIFTGNAMGLYRQAPGKERELVAAISSSGGSTYYADSVKGRFTISRDNAKNTVYLQMNSLKPEDTAVYYCAAYKYFLQYDYWGQGTQVTVSS	low polyreactivity
QVQLVESGGGLVQAGGSLRLSCAASGSIFQDYAMGWSRQAPGKERELVAVITRGGSKYYADSVKGRFTISRDNAKNTVYLQMNSLKPEDTAVYYCNTRRGRGGKYDYWGHGTQVTVSS	low polyreactivity
QVQLVESGGGLVQAGCSLRLSCAASGNIFYRYAKGRYRPAPGKERELVAGITWSGGSTYYADSVKGRFTISRDNAKNTVYLQMTSLKPEDTAVYYCGQANYYWGQGTQVTVSS	low polyreactivity
QVHHVESGGGLVQARGSLRLSCAASGFIFSSYTMGWYRQAPGKERELLAAITSRGGSTYYADSVKGRVTISRDTAKNTVYLQMNSLKAEDTAVYYCNARRIPYSPYGVHEGNYWGQGTQVTVSS	high polyreactivity
QVQLVESGGGIVQAGGSLRLSCAASGRIFDGYAMGWYRQAPGKESQLVAAISATGGSTYYADSVKGRFTISRDNAKNTVYLQMNSLKPEDTAVYYCATDYVRGLYRYKLSRYEYWGQGTQETVSS	low polyreactivity
QVQLVESGGGLVQAGGSLRLSCAASGFTFVNYAMGWYRQAPGKERELVAAISFRSARTYYADSVKGRFTISRDNAKNNVYLQMNSLKPEDTAVYYCAARVSRRFDYWGQGTQVTVSS	high polyreactivity
QVQLVESGGGLDQAGGSLRLSCAASGSIFQYYAMGWYRQAPGKEREFVAAITSDGSSTYYADSVKGRFTISRDNAKNTVYLQMNSLKPEDTAVYYCAAGWVGYRLPSMYYWGQGTQVTVSS	high polyreactivity
QVQLVESGGGLVQAGGSLRLSCAASGVIFVNNGMGWYRQAPGKERELVAAISSGGSTNYADSVKGRFTIARDNAKNTDYLQMNSLKPEDTAVYYCAVVDYLWLLQLWLSDYWGQGTQVTVSS	low polyreactivity
QVQLVESGGGLVHAGGSLRLSCAASGRTFYIYAMGWYRQAPGKERELVAAISKSGGRTYYADSVKGRITISRDNAKNTVYLQMNSLKPEDTAVYYCNKLVGDDTALYDYWGQGTQVTVSS	high polyreactivity
QVQLVESGGGLVQAGGSLRLSCAASGRIFGAYTMGWYRQAPGKERELVAAISWSGGRTYYADSVKGRFTISRDNAKNTVYLQMNSVKPEDTAVYYCAASYSGRQDRYPHYDYWGQGTQVTVSS	low polyreactivity
QVQLVESGGGLVQAGGSLRLSCAASGSTFSSNAMGWYRQAPGKEREFVAAISRRTGSTYYADSVKGRFTISRDNANNTVYLQMNSLKPEDTAVYYSAATGEKLARSSFGYWGQGTQVTVSS	low polyreactivity
QVQLVESGGGLVQAGGSLRLSCAASGRTSRVYAMGWYRQAPGKERELVAAITWRGGNTYYADSVKGRFTISRDNAKNTVYLQMNSLKPEDTAVYYCAADKYTHKPHGDYWGQGTQVTVSS	high polyreactivity
QDQLVESGGGLVQAGGSLRLSCAASGINLSAYAMGWYRQAPGKERELVARISRSGGRTYYADSVKGRFTISRDNAKNTVYLQRNSLKQDDTAVYYCAADYTYGFGLYFGFGYWGQGTKVTVSS	high polyreactivity
QVQLVESGGGLVQAGGSLRLSCSASGITFFTYAMGWYRQAPGKERELVAAISGSGGSTYYADSVKGRFTISRDNAKNTVYLQMNSLKPEDTADYYCAAEYTYASPYDYWGQGTQVTVSS	low polyreactivity
QVQLVESGGGLVQAGGSLRLSCAASGRIIKFYAMGWYRQAPGKERELVARISRSGGRTYYADSVKGRFTISRDNAKITVYLQMNSLKPEDTAVYYCAADTQSVATYDYWGQGTQVTVSS	low polyreactivity
QVQLVESGGGLVQAGGSLSLSCAASGFTFSVYVLGWYRQAPGKERELVAAISSGGDTTYADSVKGRFTISRDNAKNTVYLQMNSLNPVDTAVYYCAADPGYYSWGSSQDDYWGQGTQVTVSS	low polyreactivity
QDQLVESGGGLVQAGGSLRLSCAASGFTFGTYAMGWYRQAPGKERELVAAISARGGSTYYADSVKGRFTISRDNAKNTVYLQMNSLKPEDTAVYYCAAYYGRHVTPPTGYDYWGQGTQVTVSS	high polyreactivity
QVQLVESGGGLVQAGGSLRLSSAASGIIFTYYAMGWYRQAPGKERELVAAISSGGGSTYYADSVKGRFTISRDNAKNTVYLQMNSLKPEDTAVYYCNADYYFVYTYLHDYWGQGTQVTVSS	low polyreactivity
QVQLVESGGGLVQAGGSLRLSCAASGNIFSRYAMGWYRQAPGKERELVAAISKSGGSTYYADSVKGRFTISRDNAKNTVYLQMNSLKPEDTAVYYCAAYTFFLGYPEFDYWGQGTQVTVSS	high polyreactivity
QVPLVESVGGLVQAGGSLRLSCAASGSTFLSNAMGWYRQAPGKERELVASINWIGGSTRYADSVKGRFTISRDNAKNTVYLQMNSLKPEDTAVYYCASRRRWGGHGAFLYYYWGQGTQVTVSS	high polyreactivity
QVQLVESGGGLVQAGGSLRLSCAASGSIFTRYVQGWYRQAPGNDRELVAAISGRGSSTYYADSVKGRFTISRDNAKNTVYLQMNSLKPEDTAVYYCAAEIVVFYSEGQRNTFYYWGQGTQVTVSS	high polyreactivity
QVQLVDSGGGLVHAGGSLSLSCAASGRIFSHYALGWYRQAPGKERELVAAISSRGGRTYYADSVKGRFTISRDNAKNTVYLQMNSLKPEDPAVYYCAAVIRSVYSYYEYDYWGQCTQVTVSS	high polyreactivity

Sequence	polyreactivity (PSR sort gate)
QDQHVESGGGLVQAGGSLRLSCAASGIIFTRNAMGWYRQAPGKERELVAVISWGGRTYYADSVKGRFTISRDNAKNTVYLQMNSLKPEDTAVYYCNARAPYPVGGRKGDYWGQGTQVTVSS	high polyreactivity
QVQLVESGGGLVQAGGSLRLSCAASGFTFPPYAMGWYRQAPGKERELVAAITSSGGRTYYADSVKGRFTISRDNAKNTVYLQMNSLKPEDTAVYYCAAYGRFARMNYWGQGTQVTVSS	high polyreactivity
QVQLVESGGGLVQAGASLRLSCAASGRTSYRYAMGWNRQAPGKERELVAAISFGGGSTYYADSVKGRFPISRDNAKNTVYLQMNSLKPEDTAFYYCATDRVKYRNIYTDTGFDYWGQGTQVTVSS	high polyreactivity
QVQLVESGGGLGQAGGSLRLSCAASGRTVYYNGMGWYRPAPGKEREVVAAITSGGTTSYADSVKGRFTISRDNAKNTVYLQMISLKPEETAVYYSNADYWAVNYDYWGQGTQVTVSS	low polyreactivity
QVQLVESGGGLVQAGGSLRLSCAASGRTLSVYAMGWYRQAPGKERELLAAITIRGGRTYYADSVKGRFTISRDNAKNTVYLQMNSLKPEDTAVYYCAAPPYVKMDYWGQGTQVTVSS	high polyreactivity
QVQLVESGGGLVQAGGSLRLSCAPSGRTFWTNAMGWYRQAPGKERELVAAIRNSGGRTYYADSVKGRFTISRDNAKNTVFLQMNSLKPEDSAVYYCNARSSIRPRQGGYEHWGQGTQVTVSS	low polyreactivity
QVQLVESGGGLVQAGGSLRLSCAASGFTSRLYAMGWYRQAPGKEREFVAAISWDGTRTYYADSVKGRFTISRDNAKNTVYLQMNSLKPEDTAVYYCNARRRQWQARYDYWGQGTQITVSS	high polyreactivity
QVQLVESGGGLVQAGGSLRLSCAASGSIFFVNDMGWYRQAPGKERELVAAITRDGGTNYADSVKGRFTISRDNAKNTVYLQMNSLKPEDTAVYYCAKESGSVLSLYDYWGQGTQVTVSS	low polyreactivity
QVQLVESAGGLVQAGGSLRLSCAASGYTSSLNAMGWYRQAPGKERELVARITTDGTSTYYADSVKGRFTISRDNAKNTVYLQMNSLKPEDTAVYYCNKRSHLYGNTPYYYWGQGTQVTVSS	low polyreactivity
QVQLVESGGGLVQAGGSLRLSCAASGIIFYFYAMGWYRQAPGKERELVATITWSGTSTNYADSVKGRFTISRDNAKNTVYLQMNSLKPEDTAVYYCAARWPTGRNGYWGQGTQVTVSS	high polyreactivity
QVQLVESGGGLVQAGGSLRLSCAASGSTFFPNGMGWYRQAPGKERELVAAITQDGGSTYYADSVKGRFTISRDNAKNTVYLQMNSLKPEDTAVYYCNADYFVWYIGRVFSRYGYWGQGTQVTVSS	low polyreactivity
QVHLVESGGGLVQAGGSLRLSCAASGRTLYYYTMGWYRQAPGKERDLVAAIRWSTGSTYYADSVKGRFTISRDNAKNTVYLQMNSLKPEDTAVYYCNASRYQWAQSTEYDYWGQGTQVTVSS	high polyreactivity
QVQIVESGGGLVQAGGSLRLSCAASGFIFVFNAMGWYRQAPGKERELVAAINGGDITNYADSVKGRFTISRDNAKNTVYLQMNSLKPEDTAVYYCAADGEDSLWTGYDYDYWGQGNQVTVSS	low polyreactivity
QVQLEDSGGGLVQAGGSLGLSCAASGITFSVYDMGWYRQAPGKERQLVAAISWSGGSTYYADSVKGRFTISRDNAKNTVFLQMNSLKPDDTAVYYCAAEVDYWYELYDYWGLGTQVTVSS	high polyreactivity
QVQLVESGGGLVQAGGSLRLSCAASGITFPGYAMGWYRQAPGKERELVAAIDRSGDGTYYADSVKGRFTISRDNAKNTVYLQMNSLKPEDPAVYYCAKDNYPNHSTVLAVIYDYWGQGTQVTVSS	low polyreactivity
QVQLVESGGALVQAGGSLRLSCAPSGFTFMRYAMGWYRQAPGKERELDAAIRGTGTSTYYADSVKVRFTISRDNAKNTVYLQMNSLNPEDTAVYYCNKVAGRSPYTRYDYWAQGTQVTVSS	low polyreactivity
QVQLEESGGGLVQAGGSLRLSCAASGRTLGYNAMGWYRQAPGKERELVAAISYGGGGTYYADSVKGRFTISRDNAKNTVYLQMNSLKPEDSAVYYCAKPRAFVGYNHWGQGTQVSVSS	low polyreactivity
QDQLVDSGGCLVQAGGSLSLSCAASGNTFNIYAMGWYRQAPGKEREFVAAITVSDTSTYYADSVKGRFTISRDNAKNTVYLKMHSLKPEDTSVYYCNADWWCTYDYYYWGQGTQGTVSS	low polyreactivity
QVQLVESGRGLVQAGGSLRLSCAASGSIFTSYVMGWYRQAPGKERELVAAISQTGSSTYYADSVKGRFTISRDNAKNTVYLQMNSLKPEDTAVYYFAARRSRGSVRNYDYWGQGTKVTVSS	high polyreactivity
QVQLVESGGGLVQEGGSLRLSCAASGSTFTYNDMGRYRQAPGKERELVAAITDSDGITYYADSVKGRFTISRDNAKNTVYLQMHSLKPEDTAVSYCAAYYYGSVAQDREYWGQGTQVTVSS	high polyreactivity
QVQHGESGGGLVQAGGSLRLSCAASGTTLAAYTMGWYRQAPGKERELVAAINSGGGTNYADSVKGRFTISRDNAKNTVYLQMNSLKPEDTAVYYCAKVVFVRGAPGYYWGQGTQVTVSS	high polyreactivity
